Changes are numbered by the printed parent chain.
B1: Hu3A5 (V1) antibody (antibody, V domains shown)
VH: EVQLVQSGAEVKKPGASVKVSCKASGYTFTSYWMHWMRQAPGQGLEWIGVIDPSDSYTSYNQKFQGRVTLTVDTSTSTAYMELSSLRSEDTAVYYCARGGKRAMDYWGQGTTVTVSS
VL: DVVMTQSPLSLPVTLGQPASISCRSSQSLVHSNGNTYLHWFQQRPGQSPRLLIYKVSNRFSGVPDRFSGSGSGTDFTLKISRVEAEDVGVYFCSQSTHVPFTFGGGTKLEIK
notes: Humanized 3A5
B2: Hu3A5 (V9) antibody (antibody, V domains shown)
VH: EVQLVQSGSELKKPGASVKVSCKASGYTFTSYWMHWMRQAPGQGLEWIGVIDPSDSYTSYNQGFTGRFVLSVDTSVSTAYLQISSLKAEDTAVYYCARGGKRAMDYWGQGTTVTVSS
VL: B1 VL
notes: Humanized 3A5
B3: Hu3A5 (V3) antibody (antibody, V domains shown)
VH: B1 VH
VL: DVVMTQSPDSLAVSLGERATINCKSSQSLVHSNGNTYLHWYQQKPGQPPKLLIYKVSNRFSGVPDRFSGSGSGTDFTLTISSLQAEDVAVYFCSQSTHVPFTFGGGTKLEIK
notes: Humanized 3A5
B4: Hu3A5 (V2) antibody (antibody, V domains shown)
VH: B1 VH
VL: B1 VL with F92Y
notes: Humanized 3A5
B5: Hu3A5 (V6) antibody (antibody, V domains shown)
VH: B1 VH with E1Q, M37V, I48M, L70M
VL: B1 VL with F92Y
notes: Humanized 3A5
B6: Hu3A5 (V7) antibody (antibody, V domains shown)
VH: B1 VH with E1Q, M37V, I48M, L70M
VL: B3 VL
notes: Humanized 3A5
B7: Hu3A5 (V4) antibody (antibody, V domains shown)
VH: B1 VH
VL: B3 VL with F92Y
notes: Humanized 3A5
B8: Hu3A5 (V14) antibody (antibody, V domains shown)
VH: B2 VH with E1Q, H35N, M37V, I48M, L70F
VL: B1 VL with F92Y
notes: Humanized 3A5
B9: Hu3A5 (V5) antibody (antibody, V domains shown)
VH: B1 VH with E1Q, M37V, I48M, L70M
VL: B1 VL
notes: Humanized 3A5
B10: Hu3A5 (V13) antibody (antibody, V domains shown)
VH: B2 VH with E1Q, H35N, M37V, I48M, L70F
VL: B1 VL
notes: Humanized 3A5
B11: Hu3A5 (V8) antibody (antibody, V domains shown)
VH: B1 VH with E1Q, M37V, I48M, L70M
VL: B3 VL with F92Y
notes: Humanized 3A5
B12: Hu3A5 (V11) antibody (antibody, V domains shown)
VH: B2 VH
VL: B3 VL
notes: Humanized 3A5
B13: Hu3A5 (V15) antibody (antibody, V domains shown)
VH: B2 VH with E1Q, H35N, M37V, I48M, L70F
VL: B3 VL
notes: Humanized 3A5
B14: Hu3A5 (V12) antibody (antibody, V domains shown)
VH: B2 VH
VL: B3 VL with F92Y
notes: Humanized 3A5
B15: Hu3A5 (V16) antibody (antibody, V domains shown)
VH: B2 VH with E1Q, H35N, M37V, I48M, L70F
VL: B3 VL with F92Y
notes: Humanized 3A5
B16: Hu3A5 (V10) antibody (antibody, V domains shown)
VH: B2 VH
VL: B1 VL with F92Y

Target: T1, CD47 on the CD47-overexpressing breast cancer cell line MCF-7 (UniProt Q08722 19-323, limits assumed)
T1 construct: whole, on cells; Endogenous CD47 on MCF-7 cells; The positive control used on these cells is an anti-human CD47 antibody; also called CD47 overexpressing tumor cells (MCF-7); MCF-7 cells expressing CD47
Test: flow cytometry on MCF-7 cells, 1 µg antibody

T1 sequence (Q08722 19-323 limits assumed): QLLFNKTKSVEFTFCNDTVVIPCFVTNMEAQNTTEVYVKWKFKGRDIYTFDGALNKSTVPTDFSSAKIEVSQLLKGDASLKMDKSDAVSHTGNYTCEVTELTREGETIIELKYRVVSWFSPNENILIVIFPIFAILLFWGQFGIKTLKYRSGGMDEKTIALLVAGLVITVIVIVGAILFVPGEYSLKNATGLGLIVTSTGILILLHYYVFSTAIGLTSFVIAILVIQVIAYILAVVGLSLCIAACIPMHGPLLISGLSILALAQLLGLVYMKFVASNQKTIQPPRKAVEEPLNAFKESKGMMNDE

**Q.** Does B1 bind?
**A.** Result: binds

**Q.** Does B2 bind?
**A.** Result: binds

**Q.** Does B3 bind?
**A.** Result: binds

**Q.** Does B4 bind?
**A.** Result: binds

**Q.** Does B5 bind?
**A.** Result: binds

**Q.** Does B6 bind?
**A.** Result: binds

**Q.** Does B7 bind?
**A.** Result: binds

**Q.** Does B8 bind?
**A.** Result: binds

**Q.** Does B9 bind?
**A.** Result: binds

**Q.** Does B10 bind?
**A.** Result: binds

**Q.** Does B11 bind?
**A.** Result: binds

**Q.** Does B12 bind?
**A.** Result: binds

**Q.** Does B13 bind?
**A.** Result: binds

**Q.** Does B14 bind?
**A.** Result: binds

**Q.** Does B15 bind?
**A.** Result: binds

Target: CD47 protein (Acrobiosystems, cat#CD7-HA2E9) (UniProt Q08722)
Test: ELISA, CD47 protein coated 100 ng/well, 0.8 µg antibody per well

CD47 protein (Acrobiosystems, cat#CD7-HA2E9), sequence (Q08722 19-139 limits assumed): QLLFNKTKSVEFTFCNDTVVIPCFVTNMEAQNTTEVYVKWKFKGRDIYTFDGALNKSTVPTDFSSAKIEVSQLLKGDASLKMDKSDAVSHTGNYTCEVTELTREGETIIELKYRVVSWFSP

**Q.** How did the OD450 measurements turn out when B1 was run?
**A.** Its OD450 measurements is 2.58 OD450.

**Q.** With B16 as the molecule, how does the OD450 measurements read?
**A.** The OD450 measurements was 2.81 OD450.

**Q.** Which OD450 measurements does the source give for B2 here?
**A.** Its OD450 measurements is 2.65 OD450.

**Q.** How did the OD450 measurements turn out when B3 was run?
**A.** Its OD450 measurements is 2.54 OD450.

**Q.** B4 was tested. Which OD450 measurements did it give?
**A.** The OD450 measurements was 2.69 OD450.

**Q.** How did the OD450 measurements turn out when B5 was run?
**A.** The OD450 measurements was 2.62 OD450.

**Q.** With B6 as the molecule, how does the OD450 measurements read?
**A.** Its OD450 measurements is 2.67 OD450.

**Q.** How did the OD450 measurements turn out when B7 was run?
**A.** The OD450 measurements was 2.74 OD450.

**Q.** Which OD450 measurements does the source give for B8 here?
**A.** Its OD450 measurements is 0.147 OD450.

**Q.** With B9 as the molecule, how does the OD450 measurements read?
**A.** The OD450 measurements was 2.57 OD450.

**Q.** How did the OD450 measurements turn out when B10 was run?
**A.** The OD450 measurements was 0.0966 OD450.

**Q.** B11 was tested. Which OD450 measurements did it give?
**A.** The OD450 measurements was 2.45 OD450.

**Q.** B12 was tested. Which OD450 measurements did it give?
**A.** Its OD450 measurements is 2.81 OD450.

**Q.** B13 was tested. Which OD450 measurements did it give?
**A.** Its OD450 measurements is 0.111 OD450.

**Q.** With B14 as the molecule, how does the OD450 measurements read?
**A.** The OD450 measurements was 2.85 OD450.

**Q.** How did the OD450 measurements turn out when B15 was run?
**A.** Its OD450 measurements is 0.106 OD450.

Target: CD47 on the CD47-overexpressing breast cancer cell line MCF-7 (UniProt Q08722)
Test: flow cytometry on MCF-7 cells, secondary antibody alone (background control)

CD47 on the CD47-overexpressing breast cancer cell line MCF-7 (UniProt Q08722), sequence (Q08722 19-323 limits assumed): as the sequence (Q08722 19-323 limits assumed) above

**Q.** Which Mean (fluorescence) does the source give for “PE-conjugated goat anti-mouse IgG antibody (Biolegend Inc., cat# 405307)” here?
**A.** Its Mean (fluorescence) is 80.

**Q.** And the Median (fluorescence)?
**A.** The Median (fluorescence) was 73.9.

Reference: patent EP4365197A1 (Innobation Bio Co., Ltd., dated 2024)
